Experimental data: patent US20040126856A1, “Factor ixa: factor Vllla interaction and methods therefor” (priority 2004, published 2004)

Key:
[1] = target: T1, A2 subunit of factor VIIIa (Homo sapiens, UniProt P00451); assay: Fluorescence quenching of the dansyl moiety in dEGR-IXa by the A2 subunit; type: binding; settings: for Change in dansyl fluorescence emission intensity on titration with A2 subunit: 100 μM PL (FIG. 4)
T1 construct: cleaved by thrombin at R372-S373, R740-S741, and R1689-S1690 to yield factor VIIIa
T1 sequence (P00451 392-759): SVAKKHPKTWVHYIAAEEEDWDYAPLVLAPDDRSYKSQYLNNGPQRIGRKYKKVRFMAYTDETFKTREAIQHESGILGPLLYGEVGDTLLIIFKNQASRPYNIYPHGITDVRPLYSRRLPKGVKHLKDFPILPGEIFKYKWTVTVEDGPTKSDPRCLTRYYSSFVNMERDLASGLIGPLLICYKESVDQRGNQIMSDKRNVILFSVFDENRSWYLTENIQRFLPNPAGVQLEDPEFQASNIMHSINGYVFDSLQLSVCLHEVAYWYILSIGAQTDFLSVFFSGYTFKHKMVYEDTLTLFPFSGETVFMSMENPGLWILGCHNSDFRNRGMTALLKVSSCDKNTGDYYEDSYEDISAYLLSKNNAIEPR
Experimental: Fluorescence Quenching of the Dansyl Moiety in dEGR-IXa by the A2 Subunit.
The effect of the A2 subunit on the emission intensity of the dansyl moiety in each dEGR-IXa protein was determined using the SLM AB2 spectrofluorometer. Each reaction mixture contained 220 nM dEGR-IXa in 20 mM Hepes, pH 7.2, 100 mM NaCl, 5 mM CaCl2, 0.01% Tween, 200 μg/ml BSA and 100 μM PL vesicles. The excitation wavelength was 340 nm (slit width, 8 nm) and the emission wavelength was 540 nm (slit width; 8 nm). First, blank values (in triplicate) were obtained for the buffer containing PL. dEGR-IXa was then added and the emission intensity in the absence of the A2 subunit was recorded. Each reaction mixture was subsequently titrated with the A2 subunit and the emission readings (in triplicate) were obtained at each time point. The fluorescence emission intensity at each point was corrected for increases in the reaction volume prior to analysis of the data. […] Data are presented as F/F0 where F0 is the emission intensity in the absence of A2 subunit and F is the intensity at a given A2 subunit concentration.

[2] = target: T1, A2 subunit of factor VIIIa; assay: Apparent KdA2 of dEGR-IXa proteins: inhibition of IXaWT:A2 subunit interaction in the tenase system; type: biochemical; settings: for Kd: values from FIG. 3, read-out: App KdA2; for ΔG°A2: ΔG° = RTlnKd, 298 Kelvin
Experimental: Determination of KdA2 of Binding of dEGR-IXa Proteins to A2 Subunit.
The apparent Kd (termed KdA2) for binding of each dEGR-IXa protein to the A2 subunit was determined by its ability to inhibit factor IXaWT:A2 subunit interaction in the tenase complex as described earlier for intact factor VIIIa (Mather and Bajaj, 1999; Mather et al., 1997). The reactions were carried out as described for the EC50 experiments above except dEGR-IXa and IXaWT were mixed prior to addition of the A2 subunit; this ensured steady state conditions. Mixtures contained 100 nM IXaWT, 30 nM A2 subunit, 250 nM factor X, 25 μM PL, and various concentrations of dEGR-IXa proteins in TBS/BSA, pH 7.5 containing 5 mM CaCl2. The IC50 (concentration of inhibitor required for 50% inhibition) was determined by fitting the data to the IC50 four-parameter logistic equation of Halfman (1981) given below (Eq. 2). [formula]
where y is the rate of Xa formation in the presence of a given concentration of dEGR-IXa protein represented by x, a is the maximum rate of factor Xa formation in the absence of dEGR-IXa, and s is the slope factor. Each point was weighted equally, and the data were fitted to Equation 2 using the nonlinear regression analysis program GraFit from Erithacus Software. […] To obtain KdA2 values for the interaction of dEGR-IXa proteins with A2, we used the following equation (Eq. 3) as described by Cheng and Prusoff (1973) and further elaborated by Craig (1993). [formula]
where A is the concentration of IXaWT, and EC50 is the concentration of factor IXaWT that gives a 50% maximum response in the absence of the competitor at a specified concentration of factor X used in the experiment.

factor X = target: T2, factor X (Homo sapiens, UniProt P00742); assay: Activation of factor X by factor IXa proteins in the presence of only Ca2+ and PL (absence of factor VIIIa); type: biochemical; settings: 20 nM factor IXa; for kcat: 5 mM CaCl2, absence of factor VIIIa; for Km: 5 mM CaCl2, factor X 25 nM to 3 μM, absence of factor VIIIa
T2 construct: Normal plasma factor IX (IXNP) and factor X was isolated as previously described; from tissue; host or cells: normal plasma
Experimental: Activation of Factor X by Each Factor IXa Protein in the Presence of Only Ca^2+ and PL.
For these studies, each factor IX was activated with factor XIa/Ca^2+ as described above. For factor X activation studies, the concentration of factor IXa was kept at 20 nM and the buffer used was TBS/BSA (TBS with […] BSA) containing 5 mM CaCl2. The concentrations of PL used were 10, 25, 50, and 100 μM in different sets of experiments. The concentration of factor X at each PL concentration ranged from 25 nM to 3 μM. The activations were carried out for 5-15 min and the amount of factor Xa generated was measured by hydrolysis of S-2222 as described previously (Mather and Bajaj, 1999; Mather et al., 1997). The Km and kcat values were obtained using the program GraFit from Erithacus Software.

T2 sequence (P00742 183-488 limits assumed): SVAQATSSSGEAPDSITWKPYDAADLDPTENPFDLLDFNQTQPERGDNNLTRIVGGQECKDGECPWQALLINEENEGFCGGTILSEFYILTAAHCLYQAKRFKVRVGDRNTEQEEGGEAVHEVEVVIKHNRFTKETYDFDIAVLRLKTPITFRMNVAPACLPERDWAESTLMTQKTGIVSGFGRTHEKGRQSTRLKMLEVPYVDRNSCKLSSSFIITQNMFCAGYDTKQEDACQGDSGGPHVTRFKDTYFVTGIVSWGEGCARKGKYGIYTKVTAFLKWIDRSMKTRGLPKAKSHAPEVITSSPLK
T2 sequence (P00742 41-179 limits assumed): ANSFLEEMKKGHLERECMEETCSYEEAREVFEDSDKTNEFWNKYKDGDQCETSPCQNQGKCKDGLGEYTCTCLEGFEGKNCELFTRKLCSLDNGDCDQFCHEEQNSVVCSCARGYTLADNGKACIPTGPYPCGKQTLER

Row | Change in dansyl fluorescence emission intensity on titration with A2 subunit ([1]; 220 nM dEGR-IXa protein) | Change in ΔG°A2 between the mutant and WT [2] | Fold-change in apparent KdA2 (mutant/WT) [2] | Kd [2] | ΔG°A2 [2] | Plateau value for F/F0 ([1]; bimolecular association model fit, 220 nM dEGR-IXa protein, 100 μM PL) | Kd ([1]; bimolecular association model fit, read-out: Apparent KdA2 from fluorescence quenching) | Substance | kcat (factor X; PL 10 μM) | Km (factor X; PL 10 μM) | kcat (factor X; PL 25 μM) | Km (factor X; PL 25 μM) | kcat (factor X; PL 50 μM) | Km (factor X; PL 50 μM) | kcat (factor X; PL 100 μM) | Km (factor X; PL 100 μM)
1 | little if any change | 1.72 kcal/mol | ~15 | 1850 ± 82 nM | 7.82 kcal/mol | – | – | IXaR333Q: activated factor IX point mutant in which Arg333 is replaced by Gln | 0.0002 s⁻¹ | 0.11 µM | 0.0003 s⁻¹ | 0.18 µM | 0.0005 s⁻¹ | 0.23 µM | 0.000667 s⁻¹ | 0.61 µM
2 | dose-dependent decrease | – | – | 100 ± 11 nM | 9.54 kcal/mol | 0.59±0.05 | ~100 nM | IXaWT: activated recombinant wild-type factor IX (IXWT) | 0.000167 s⁻¹ | 0.09 µM | 0.0002 s⁻¹ | 0.12 µM | 0.0004 s⁻¹ | 0.24 µM | 0.000633 s⁻¹ | 0.57 µM
